The assay concerns the target Lhcp-2 polypeptide of the prasinophyte light-harvesting complex Lhcp (Ostreococcus tauri) (Ostreococcus tauri). Briefly: cryo-EM structure.

The values below come from article PMC12624006.

Turning to “Lhcp-2 polypeptide of the prasinophyte light-harvesting complex Lhcp (Ostreococcus tauri) (natural protein)”, the stoichiometry N (usually the number of molecules, sites or subunits per partner or assembly) came out at 3.
